Experimental data published in paper PMC10974336, “Characterization of a Novel Hyperthermophilic GH1 β-Glucosidase from Acidilobus sp. and Its Application in the Hydrolysis of Soybean Isoflavone Glycosides” (Microorganisms, 2024).

Tests used:
[1] = substrate: O=[N+]([O-])c1ccc(O[C@@H]2O[C@H](CO)[C@@H](O)[C@H](O)[C@H]2O)cc1; assay: cells, lysate or membranes; type: biochemical, Acidilobus sp. 7A; details: crude enzyme, mutant BglAcN, 30 bp deletion, printed as nine residues (…) at positions 298 to 307, pH 5.0
[2] = substrate: O=[N+]([O-])c1ccc(O[C@@H]2O[C@H](CO)[C@@H](O)[C@H](O)[C@H]2O)cc1; assay: purified protein; type: biochemical, Acidilobus sp. 7A; details: pH 5.0 sodium citrate, 100 °C, pNPG 0.2 to 2 mM

| Protein | Km [1] [mM] | Vmax [1] [µmol/min/mg] | kcat [1] [s⁻¹] | kcat/Km [1] [M⁻¹ s⁻¹] | Km [2] [mM] | Vmax [2] [µmol/min/mg] | kcat [2] [s⁻¹] | kcat/Km [2] [M⁻¹ s⁻¹] |
| --- | --- | --- | --- | --- | --- | --- | --- | --- |
| BglAc (Acidilobus sp. 7A; DEL298-307) (protein, N-terminal 6xHis tag, pET-30a(+) NdeI/EcoRI, E. coli BL21(DE3), Ni-NTA; residues Glu208, Glu383, Gln19, His152, Asn207, Glu428, Trp429) MTVSFPKGFLFGWSQAGFQSEMGTPGSEDPNSDWYAWVHDRENIASGLVSGDLPENGPGYWGNYRRFHDAAQAMGLSAARIGVEWSRIFPKPTFDVKVHADVRGEEVASVDVSEQALEQLDRLANREAVNHYREMFSDLRSRGITFILNLYHWPLPLWLHDPIAIRRGNLSAPSGWLDVRAVVEFAKFAAYVAWKLDDLVYMYSTMNEPNVVWSHGFTQPKSGFPPGYLCFECSGKAMKNLLQAHARAYDIVKSMTKKPVGVIYATADWTPLTESEADRAAAEAAKAADRWAFFDMLGRLDWIGVNYYSRLVVRAGRSGFQVIPGYGFACEPNSVSPAGRPCSDFGWEFYPEGLYHALKDYWERYHLPLMVTENGAADEGDYLRPYYLVSHIYQVHRAMQEEVNVTGYLHWSLADNYEWASGFGKRFGLLMVDYETKRLYWRPSAFIYREIAKNNAITDEVEHLNRVPPLKPLRK | 8.58 | 288 | 260 | 30300 | – | – | – | – |
| BglAc (Acidilobus sp. 7A) (protein, N-terminal 6xHis tag, pET-30a(+) NdeI/EcoRI, E. coli BL21(DE3), Ni-NTA; residues Glu208, Glu383, Gln19, His152, Asn207, Glu428, Trp429) MTVSFPKGFLFGWSQAGFQSEMGTPGSEDPNSDWYAWVHDRENIASGLVSGDLPENGPGYWGNYRRFHDAAQAMGLSAARIGVEWSRIFPKPTFDVKVHADVRGEEVASVDVSEQALEQLDRLANREAVNHYREMFSDLRSRGITFILNLYHWPLPLWLHDPIAIRRGNLSAPSGWLDVRAVVEFAKFAAYVAWKLDDLVYMYSTMNEPNVVWSHGFTQPKSGFPPGYLCFECSGKAMKNLLQAHARAYDIVKSMTKKPVGVIYATADWTPLTESEADRAAAEAAKAADRWAFFDMLSKGSPRDDLRGRLDWIGVNYYSRLVVRAGRSGFQVIPGYGFACEPNSVSPAGRPCSDFGWEFYPEGLYHALKDYWERYHLPLMVTENGAADEGDYLRPYYLVSHIYQVHRAMQEEVNVTGYLHWSLADNYEWASGFGKRFGLLMVDYETKRLYWRPSAFIYREIAKNNAITDEVEHLNRVPPLKPLRK | – | – | – | – | 3.41 | 474 | 418 | 123000 |
